Measurements taken from the supplement of paper PMC9112550, “Optimization of the antimicrobial peptide Bac7 by deep mutational scanning” (BMC Biology, 2022).

These sequences were tested on Escherichia coli TOP10 (assay: shrunken log2 fold change of peptide-encoding DNA abundance (4.5 h post-induction vs induction); higher = less antimicrobial activity (less host growth inhibition)). Settings: time post-induction: 4.5 h; library: site-saturation at positions 5, 18, 19, 20.
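Further: peptides expressed intracellularly from a pBAD plasmid library in pooled LB shake-flask culture, induced with 0.3% L-arabinose, DNA abundance read by NGS, three biological replicates, DESeq2 with apeglm shrinkage.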

Row | Sequence | shrunken log2 fold change
1 | RRIRDRPPRLPRPRPRPYCGPRP | 0.0637
2 | RRIRDRPPRLPRPRPRPYCPPRP | -1.1
3 | RRIRDRPPRLPRPRPRPYEQPRP | -0.0135
4 | RRIRDRPPRLPRPRPRPYGLPRP | -0.0553
5 | RRIRDRPPRLPRPRPRPYHMPRP | -0.00968
6 | RRIRDRPPRLPRPRPRPYLAPRP | -0.0552
7 | RRIRDRPPRLPRPRPRPYMMPRP | -0.297
8 | RRIRDRPPRLPRPRPRPYNIPRP | -0.529
9 | RRIRDRPPRLPRPRPRPYNKPRP | -0.398
10 | RRIRDRPPRLPRPRPRPYPKPRP | -0.143
11 | RRIRDRPPRLPRPRPRPYQQPRP | -0.184
12 | RRIRDRPPRLPRPRPRPYSGPRP | -0.035
13 | RRIRDRPPRLPRPRPRPYSHPRP | -0.471
14 | RRIRDRPPRLPRPRPRPYSNPRP | -0.045
15 | RRIRDRPPRLPRPRPRPYTAPRP | 0.0362
16 | RRIRDRPPRLPRPRPRPYWQPRP | -0.548
17 | RRIRDRPPRLPRPRPRPYYGPRP | 0.127
18 | RRIRDRPPRLPRPRPRPYYPPRP | -0.248
19 | RRIRDRPPRLPRPRPRPYYVPRP | 0.0365
20 | RRIRERPPRLPRPRPRPAFPPRP | 0.295
21 | RRIRERPPRLPRPRPRPAGQPRP | -0.195
22 | RRIRERPPRLPRPRPRPAIVPRP | 0.00833
23 | RRIRERPPRLPRPRPRPAKDPRP | -0.284
24 | RRIRERPPRLPRPRPRPAKKPRP | 0.00764
25 | RRIRERPPRLPRPRPRPAKMPRP | -0.194

Row | Sequence | shrunken log2 fold change
26 | RRIRERPPRLPRPRPRPAKTPRP | -0.244
27 | RRIRERPPRLPRPRPRPALLPRP | -0.23
28 | RRIRERPPRLPRPRPRPAMLPRP | -0.155
29 | RRIRERPPRLPRPRPRPAMTPRP | 0.0328
30 | RRIRERPPRLPRPRPRPANPPRP | -0.0315
31 | RRIRERPPRLPRPRPRPANRPRP | 0.111
32 | RRIRERPPRLPRPRPRPANTPRP | 1.45
33 | RRIRERPPRLPRPRPRPAQLPRP | -0.124
34 | RRIRERPPRLPRPRPRPAQPPRP | 0.0203
35 | RRIRERPPRLPRPRPRPARSPRP | 0.0919
36 | RRIRERPPRLPRPRPRPASRPRP | 0.0348
37 | RRIRERPPRLPRPRPRPASSPRP | 0.0151
38 | RRIRERPPRLPRPRPRPATSPRP | 0.0131
39 | RRIRERPPRLPRPRPRPAVLPRP | 0.034
40 | RRIRERPPRLPRPRPRPAVSPRP | 0.0433
41 | RRIRERPPRLPRPRPRPAVYPRP | -0.221
42 | RRIRERPPRLPRPRPRPAWCPRP | 0.238
43 | RRIRERPPRLPRPRPRPAWFPRP | 0.187
44 | RRIRERPPRLPRPRPRPAYHPRP | -0.223
45 | RRIRERPPRLPRPRPRPCFTPRP | -0.453
46 | RRIRERPPRLPRPRPRPCFVPRP | -0.151
47 | RRIRERPPRLPRPRPRPCGEPRP | -0.116
48 | RRIRERPPRLPRPRPRPCHKPRP | -0.154
49 | RRIRERPPRLPRPRPRPCLIPRP | -0.0716
50 | RRIRERPPRLPRPRPRPCLTPRP | -0.0208

Row | Sequence | shrunken log2 fold change
51 | RRIRERPPRLPRPRPRPCMSPRP | -0.00711
52 | RRIRERPPRLPRPRPRPCPFPRP | -1.04
53 | RRIRERPPRLPRPRPRPCQKPRP | -0.0135
54 | RRIRERPPRLPRPRPRPCRAPRP | -0.0474
55 | RRIRERPPRLPRPRPRPCRCPRP | 0.00968
56 | RRIRERPPRLPRPRPRPCRQPRP | -0.157
57 | RRIRERPPRLPRPRPRPCTTPRP | -0.172
58 | RRIRERPPRLPRPRPRPCVTPRP | -0.322
59 | RRIRERPPRLPRPRPRPCYCPRP | -0.539
60 | RRIRERPPRLPRPRPRPCYFPRP | -0.917
61 | RRIRERPPRLPRPRPRPDAEPRP | 0.36
62 | RRIRERPPRLPRPRPRPDATPRP | 0.645
63 | RRIRERPPRLPRPRPRPDCTPRP | 0.104
64 | RRIRERPPRLPRPRPRPDCWPRP | -0.0875
65 | RRIRERPPRLPRPRPRPDDDPRP | 0.00371
66 | RRIRERPPRLPRPRPRPDDGPRP | -0.269
67 | RRIRERPPRLPRPRPRPDEEPRP | -0.142
68 | RRIRERPPRLPRPRPRPDGQPRP | -0.388
69 | RRIRERPPRLPRPRPRPDGVPRP | -0.162
70 | RRIRERPPRLPRPRPRPDGYPRP | 0.0107
71 | RRIRERPPRLPRPRPRPDIQPRP | 3.69
72 | RRIRERPPRLPRPRPRPDKYPRP | -0.449
73 | RRIRERPPRLPRPRPRPDLMPRP | 0.0435
74 | RRIRERPPRLPRPRPRPDMLPRP | -0.166
75 | RRIRERPPRLPRPRPRPDMQPRP | -0.184

Row | Sequence | shrunken log2 fold change
76 | RRIRERPPRLPRPRPRPDNWPRP | -0.103
77 | RRIRERPPRLPRPRPRPDNYPRP | -0.0933
78 | RRIRERPPRLPRPRPRPDPCPRP | -0.119
79 | RRIRERPPRLPRPRPRPDPNPRP | 0.0422
80 | RRIRERPPRLPRPRPRPDPWPRP | -0.12
81 | RRIRERPPRLPRPRPRPDSDPRP | -0.0703
82 | RRIRERPPRLPRPRPRPDTQPRP | -0.116
83 | RRIRERPPRLPRPRPRPDVNPRP | -0.0793
84 | RRIRERPPRLPRPRPRPDWEPRP | 0.368
85 | RRIRERPPRLPRPRPRPDYFPRP | -0.249
86 | RRIRERPPRLPRPRPRPDYSPRP | -1.47
87 | RRIRERPPRLPRPRPRPEAQPRP | 0.227
88 | RRIRERPPRLPRPRPRPECYPRP | -0.143
89 | RRIRERPPRLPRPRPRPEDNPRP | 0.0813
90 | RRIRERPPRLPRPRPRPEEWPRP | -0.0919
91 | RRIRERPPRLPRPRPRPEFFPRP | -0.131
92 | RRIRERPPRLPRPRPRPEGEPRP | 0.332
93 | RRIRERPPRLPRPRPRPEGGPRP | 0.361
94 | RRIRERPPRLPRPRPRPEIGPRP | -0.166
95 | RRIRERPPRLPRPRPRPEKHPRP | -0.13
96 | RRIRERPPRLPRPRPRPEKKPRP | -0.0578
97 | RRIRERPPRLPRPRPRPELTPRP | 0.534
98 | RRIRERPPRLPRPRPRPEMQPRP | -0.0367
99 | RRIRERPPRLPRPRPRPENRPRP | -0.29
100 | RRIRERPPRLPRPRPRPENTPRP | -0.354

Row | Sequence | shrunken log2 fold change
101 | RRIRERPPRLPRPRPRPEPCPRP | -0.148
102 | RRIRERPPRLPRPRPRPEPPPRP | 0.595
103 | RRIRERPPRLPRPRPRPEQKPRP | -0.017
104 | RRIRERPPRLPRPRPRPERAPRP | -0.024
105 | RRIRERPPRLPRPRPRPERFPRP | -0.0509
106 | RRIRERPPRLPRPRPRPERRPRP | -0.0345
107 | RRIRERPPRLPRPRPRPERVPRP | -0.0309
108 | RRIRERPPRLPRPRPRPEWMPRP | 0.171
109 | RRIRERPPRLPRPRPRPEWNPRP | -0.197
110 | RRIRERPPRLPRPRPRPEWSPRP | 0.0433
111 | RRIRERPPRLPRPRPRPFAAPRP | 0.229
112 | RRIRERPPRLPRPRPRPFACPRP | -0.433
113 | RRIRERPPRLPRPRPRPFEAPRP | -0.342
114 | RRIRERPPRLPRPRPRPFEQPRP | -0.126
115 | RRIRERPPRLPRPRPRPFETPRP | 0.21
116 | RRIRERPPRLPRPRPRPFFIPRP | -0.354
117 | RRIRERPPRLPRPRPRPFHWPRP | -0.0575
118 | RRIRERPPRLPRPRPRPFICPRP | -0.36
119 | RRIRERPPRLPRPRPRPFKVPRP | 0.14
120 | RRIRERPPRLPRPRPRPFLSPRP | -0.11
121 | RRIRERPPRLPRPRPRPFNFPRP | -0.298
122 | RRIRERPPRLPRPRPRPFNTPRP | -0.124
123 | RRIRERPPRLPRPRPRPFPMPRP | -0.423
124 | RRIRERPPRLPRPRPRPFQGPRP | 0.0891
125 | RRIRERPPRLPRPRPRPFQRPRP | -0.0653

Row | Sequence | shrunken log2 fold change
126 | RRIRERPPRLPRPRPRPFRAPRP | 0.0204
127 | RRIRERPPRLPRPRPRPFSHPRP | -0.153
128 | RRIRERPPRLPRPRPRPFTSPRP | -0.209
129 | RRIRERPPRLPRPRPRPFTVPRP | -0.00987
130 | RRIRERPPRLPRPRPRPFVIPRP | -0.478
131 | RRIRERPPRLPRPRPRPFWQPRP | -0.0859
132 | RRIRERPPRLPRPRPRPFYEPRP | -0.498
133 | RRIRERPPRLPRPRPRPFYGPRP | 0.015
134 | RRIRERPPRLPRPRPRPFYIPRP | -0.5
135 | RRIRERPPRLPRPRPRPFYLPRP | -0.648
136 | RRIRERPPRLPRPRPRPFYVPRP | -0.189
137 | RRIRERPPRLPRPRPRPGANPRP | 0.0574
138 | RRIRERPPRLPRPRPRPGCLPRP | -0.017
139 | RRIRERPPRLPRPRPRPGCWPRP | 0.166
140 | RRIRERPPRLPRPRPRPGETPRP | 0.0954
141 | RRIRERPPRLPRPRPRPGFAPRP | 0.604
142 | RRIRERPPRLPRPRPRPGGPPRP | -0.00661
143 | RRIRERPPRLPRPRPRPGGVPRP | 0.0164
144 | RRIRERPPRLPRPRPRPGHQPRP | -0.236
145 | RRIRERPPRLPRPRPRPGIPPRP | -0.421
146 | RRIRERPPRLPRPRPRPGIQPRP | -0.398
147 | RRIRERPPRLPRPRPRPGKQPRP | -0.0388
148 | RRIRERPPRLPRPRPRPGMAPRP | 0.188
149 | RRIRERPPRLPRPRPRPGNPPRP | 0.00298
150 | RRIRERPPRLPRPRPRPGPLPRP | -0.127
